Biological target: human factor Xa (human) (UniProt P00742)
Assay: prothrombinase activity titration

UniProt P00742, sequence (P00742 41-179, chain 1 of 2): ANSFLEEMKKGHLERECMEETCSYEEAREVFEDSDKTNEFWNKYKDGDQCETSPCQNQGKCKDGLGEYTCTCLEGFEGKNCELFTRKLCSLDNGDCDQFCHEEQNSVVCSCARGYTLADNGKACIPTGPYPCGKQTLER
UniProt P00742, sequence (P00742 235-488, chain 2 of 2): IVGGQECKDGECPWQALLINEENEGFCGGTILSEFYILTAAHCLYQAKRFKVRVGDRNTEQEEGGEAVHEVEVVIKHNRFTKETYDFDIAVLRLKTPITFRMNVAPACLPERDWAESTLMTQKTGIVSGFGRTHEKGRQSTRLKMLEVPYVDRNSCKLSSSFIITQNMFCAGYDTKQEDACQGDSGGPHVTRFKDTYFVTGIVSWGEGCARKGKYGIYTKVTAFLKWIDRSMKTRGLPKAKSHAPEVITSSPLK

Kd: 0.67 nM
Substance: plasma-derived human factor V activated with α-thrombin (from UniProt P12259 29-737) (natural protein)
